Substrate: [H][C@@]12COP(=O)(O)O[C@@]1([H])[C@@H](O)[C@H](n1cnc3c(=O)[nH]c(N)nc31)O2
Assay: HPLC initial-rate assay, Michaelis-Menten fit, membrane fraction
Type: biochemical, Choanoeca flexa
Details: 5 mM MgCl2, 20 mM Hepes, 100 mM NaCl, 5 mM DTT, 5% glycerol
[1] = light-adapted state (470 nm, 30 μW/mm^2)

B1: CfRhPDE1 (Choanoeca flexa) (protein)
chain: MSKAMTMREEAALELKRKGKVKNVAIATTSEVQKQGFFMMAVWIATVSILWLFSNPEASEAVFEKHGQLRVMYGATSVAFAFATALDVLAYVNAVSDEKRVLSGVLAYVDGAACLSYAAMASLPLYFILDSHNGNPIWLMRYAEWLITCPTLLYWCGLATRGERGAVADIATGDAMLLAGGALSSILPGWPSYFVFMGSVAAFVYVMTHMWGLFSKAMQPDFSPAPPLPRTALNLMRWEIVLSWTCFPMIEYSRRYFGLDYQTGEALNSIIDYAAKVGLAMIMVNCNLEQINAIKVEQMQSAMSGMVKVMRKTNARVELDGMDDDVKGWLLNEYAGDDGEDEVKVSSKSKRNQKSINPEEISASALFSWDFCSLDKSEEDLVGICIRVFRELKMIEVFDLDESKLRRFILGVRSRYNKNPFHNWKHAVMVLHTCYLFITQVAAEFCTDLEVLALLFAALCHDCDHNGVNNAFHINSRSDLALLYNDQSVLENHHCYSGFDVLYDKGNNFLDVLSEGDFKRFRSLVIDCILGTDMAHHASKLGKLEEINRLGGFSNLAENDEQRAFVMVTLLHTSDLYNPIKPFHITKKWANRLQREFNQQVEVESQMGLPSLPFMKGQGELALAKGEVGFITFVIRPWYVQLTNAFPKIDFLMDNIDTNLDMWKSIVESHE
notes: full-length, N-terminal Venus tag kept, no other change from WT; codon-optimized; membranes of ND7/23 cells; modelled as dimer
Km (darkness (dark-adapted state)): 4.4 ± 0.6 µM
kcat (darkness (dark-adapted state)): 2.0 ± 0.1 s⁻¹
Km [1]: 1.9 ± 0.1 µM
kcat [1]: 4.7 ± 0.1 s⁻¹
